Test results: US20030068675, “Position dependent recognition of GNN nucleotide triplets by zinc fingers” (published 2003)
Substitutions are numbered along the chain they refer to.

How the values were obtained:
Assay in all cases: EMSA
Settings in all cases: tags: MBP fusion
ZFP SBS#734 = ZFP SBS#734 (synthetic)
Outline: (§1)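 Purified ZFP was titrated against labeled double-stranded target (1 nM or lower, at least 10-fold below expected Kd) carrying the natural binding site with flanks. Binding buffer was 10 mM Tris pH 7.5, 100 mM KCl, 1 mM MgCl2, 0.1 mM ZnCl2, 5 mM DTT, 10% glycerol, 0.02% BSA, with equilibration for at least 45 min. Bound and free target were separated on a 10% polyacrylamide gel.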

ZFP SBS#746 = ZFP SBS#746 (synthetic)
Sequence of ZFP SBS#746 (synthetic) (chain, as listed by the source): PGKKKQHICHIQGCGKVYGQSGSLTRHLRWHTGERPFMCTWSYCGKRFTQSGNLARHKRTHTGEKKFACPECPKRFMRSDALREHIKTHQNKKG
Outline: as §1

ZFP SBS#568 = target: T1, ZFP SBS#568 (synthetic)
T1 chain: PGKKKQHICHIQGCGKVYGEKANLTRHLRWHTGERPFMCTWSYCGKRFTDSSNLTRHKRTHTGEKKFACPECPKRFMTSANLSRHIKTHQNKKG
Outline: as §1

ZFP SBS#430 = target: T2, ZFP SBS#430 (synthetic)
T2 chain: T1 chain with T78Q, S79Q, A80S, S83A
Outline: as §1

ZFP SBS#777 = target: T3, ZFP SBS#777 (synthetic)
T3 chain: T1 chain with E20R, K21S, A22D, N23H, T25A, S51R, T78R, A80D, N81A, R84A
Outline: as §1

ZFP SBS#776 = target: T4, ZFP SBS#776 (synthetic)
T4 chain: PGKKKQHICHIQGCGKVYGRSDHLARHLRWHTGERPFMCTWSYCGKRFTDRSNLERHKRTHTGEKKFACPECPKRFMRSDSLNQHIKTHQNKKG
Outline: as §1

ZFP SBS#727 = ZFP SBS#727 (synthetic, UniProt P08047)
Sequence of ZFP SBS#727 (P08047 other isoform, or with tags, fused parts or gaps): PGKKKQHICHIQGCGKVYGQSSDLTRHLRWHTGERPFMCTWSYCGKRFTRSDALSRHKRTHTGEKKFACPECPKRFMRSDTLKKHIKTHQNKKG
Outline: as §1

ZFP SBS#761 = target: T5, ZFP SBS#761 (synthetic)
T5 chain: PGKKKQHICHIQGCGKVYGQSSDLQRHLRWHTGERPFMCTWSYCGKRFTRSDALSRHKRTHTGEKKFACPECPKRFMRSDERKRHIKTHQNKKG
Outline: as §1

ZFP SBS#762 = ZFP SBS#762 (synthetic, UniProt P08047)
Sequence of ZFP SBS#762 (P08047 other isoform, or with tags, fused parts or gaps): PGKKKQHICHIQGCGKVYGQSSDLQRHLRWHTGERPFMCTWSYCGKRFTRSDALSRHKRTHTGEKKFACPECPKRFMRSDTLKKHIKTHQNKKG
Outline: as §1

ZFP SBS#735 = target: T6, ZFP SBS#735 (synthetic)
T6 chain: T5 chain with Q25T
Outline: as §1

ZFP SBS#728 = target: T7, ZFP SBS#728 (synthetic)
T7 chain: T1 chain with E20R, K21S, A22D, T25A, D50R, S52D, T55A, T78D, A80S, N81K
Outline: as §1

ZFP SBS#713 = target: T8, ZFP SBS#713 (synthetic)
T8 chain: T1 chain with E20R, K21S, A22D, T25A, D50R, S52D, T55A, T78M, A80H, N81H
Outline: as §1

ZFP SBS#712 = target: T9, ZFP SBS#712 (synthetic)
T9 chain: T4 chain with H23N, D50R, R51S, S52D, E55A, R78M, S81H, N83S, Q84R
Outline: as §1

ZFP SBS#751 = ZFP SBS#751 (synthetic)
Sequence of ZFP SBS#751 (synthetic) (chain, as listed by the source): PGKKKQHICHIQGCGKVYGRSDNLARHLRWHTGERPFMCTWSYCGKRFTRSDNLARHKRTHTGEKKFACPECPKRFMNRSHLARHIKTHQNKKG
Outline: as §1

ZFP SBS#741 = ZFP SBS#741 (synthetic)
Sequence of ZFP SBS#741 (synthetic) (chain, as listed by the source): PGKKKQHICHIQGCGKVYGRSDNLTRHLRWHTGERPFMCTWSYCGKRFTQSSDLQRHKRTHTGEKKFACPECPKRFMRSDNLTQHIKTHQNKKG
Outline: as §1

ZFP SBS#732 = ZFP SBS#732 (synthetic)
Sequence of ZFP SBS#732 (synthetic) (chain, as listed by the source): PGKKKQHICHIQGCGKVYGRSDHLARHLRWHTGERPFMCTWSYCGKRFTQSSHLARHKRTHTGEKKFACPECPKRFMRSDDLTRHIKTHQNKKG
Outline: as §1

ZFP SBS#733 = ZFP SBS#733 (synthetic)
Outline: as §1

ZFP SBS#567 = target: T10, ZFP SBS#567 (synthetic)
T10 chain: T1 chain with D50T, S52A, T55S, T78Q, S79R, A80S, S83V
Outline: as §1

ZFP SBS#428 = ZFP SBS#428 (synthetic)
Sequence of ZFP SBS#428 (synthetic) (chain, as listed by the source): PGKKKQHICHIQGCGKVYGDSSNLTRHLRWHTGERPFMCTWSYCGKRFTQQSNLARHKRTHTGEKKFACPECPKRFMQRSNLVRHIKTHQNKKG
Outline: as §1

ZFP SBS#429 = ZFP SBS#429 (synthetic)
Sequence of ZFP SBS#429 (synthetic) (chain, as listed by the source): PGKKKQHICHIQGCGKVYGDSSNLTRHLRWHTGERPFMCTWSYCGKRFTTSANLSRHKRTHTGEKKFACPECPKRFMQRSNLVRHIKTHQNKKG
Outline: as §1

ZFP SBS#742 = target: T11, ZFP SBS#742 (synthetic)
T11 chain: T5 chain with S21R, S22G, D23A, Q25A, R26S, A53H, E81T, R82L, R84Q
Outline: as §1

ZFP SBS#744 = target: T12, ZFP SBS#744 (synthetic)
T12 chain: T5 chain with S21R, D23A, Q25A, R26S, A53H, E81T, R82L, R84Q
Outline: as §1

ZFP SBS#745 = target: T13, ZFP SBS#745 (synthetic)
T13 chain: T5 chain with S21R, D23A, Q25A, R26S, A53H, E81T, R82L, K83T, R84Q
Outline: as §1

ZFP SBS#743 = target: T14, ZFP SBS#743 (synthetic)
T14 chain: T5 chain with S21R, S22G, D23A, Q25A, R26S, A53H, E81T, R82L, K83T, R84Q
Outline: as §1

ZFP SBS#757 = target: T15, ZFP SBS#757 (synthetic, UniProt P08047)
T15 chain: T5 chain with Q25R, A53E, S55Q, E81H, R82L, K83R, R84E
Outline: as §1

ZFP SBS#758 = target: T16, ZFP SBS#758 (synthetic, UniProt P08047)
T16 chain: T5 chain with Q25R, S51A, A53T, S55R, E81H, R82L, K83R, R84E
Outline: as §1

ZFP SBS#704 = ZFP SBS#704 (synthetic)
Sequence of ZFP SBS#704 (synthetic) (chain, as listed by the source): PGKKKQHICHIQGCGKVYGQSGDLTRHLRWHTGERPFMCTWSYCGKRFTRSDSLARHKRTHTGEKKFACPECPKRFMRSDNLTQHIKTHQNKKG
Outline: as §1

ZFP SBS#607 = ZFP SBS#607 (synthetic)
Outline: as §1

ZFP SBS#740 = target: T17, ZFP SBS#740 (synthetic)
T17 chain: T5 chain with S22G, D23S, Q25T, S55A, E81N, K83T, R84A
Outline: as §1

ZFP SBS#747 = target: T18, ZFP SBS#747 (synthetic)
T18 chain: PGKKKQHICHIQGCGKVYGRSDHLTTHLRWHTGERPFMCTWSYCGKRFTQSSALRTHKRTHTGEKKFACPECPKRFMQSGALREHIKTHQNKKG
Outline: as §1

ZFP SBS#736 = target: T19, ZFP SBS#736 (synthetic, UniProt P08047)
T19 chain: T5 chain with Q20R, S22D, D23H, Q25A, E81N, R82L, K83S
Outline: as §1

ZFP SBS#752 = target: T20, ZFP SBS#752 (synthetic, UniProt P08047)
T20 chain: T5 chain with Q20R, S22H, D23H, Q25A, E81N, R82L, K83S
Outline: as §1

ZFP SBS#760 = target: T21, ZFP SBS#760 (synthetic)
T21 chain: T4 chain with R20D, S21R, D22S, A25T, S79G, S81A, N83T, Q84S
Outline: as §1

ZFP SBS#759 = target: T22, ZFP SBS#759 (synthetic)
T22 chain: T4 chain with R20D, D22G, A25T, R51S, E55T, S79G, S81A, N83T, Q84S
Outline: as §1

ZFP SBS#748 = target: T23, ZFP SBS#748 (synthetic)
T23 chain: T4 chain with R20D, D22G, A25T, S79G, S81A, N83T, Q84S
Outline: as §1

ZFP SBS#749 = target: T24, ZFP SBS#749 (synthetic)
T24 chain: T1 chain with E20D, K21R, A22S, N23H, T78R, S79G, A80D, N81A, S83T, R84S
Outline: as §1

ZFP SBS#780 = ZFP SBS#780 (synthetic)
Sequence of ZFP SBS#780 (synthetic) (chain, as listed by the source): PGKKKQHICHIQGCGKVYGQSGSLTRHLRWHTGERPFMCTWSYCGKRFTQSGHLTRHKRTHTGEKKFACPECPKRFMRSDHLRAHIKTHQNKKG
Outline: as §1

ZFP SBS#779 = ZFP SBS#779 (synthetic)
Outline: as §1

Sequence of ZFP SBS#734 (synthetic) (chain, as listed by the source): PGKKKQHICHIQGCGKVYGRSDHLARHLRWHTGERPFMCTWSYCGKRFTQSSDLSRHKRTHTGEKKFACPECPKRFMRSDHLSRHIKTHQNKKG

B1: GGGGCTGGGT (dsDNA)
DNA 1: GGGGCTGGGT
DNA 2: ACCCAGCCCC
With B1 as the binder, how does the Kd (ZFP SBS#734) read?
Its Kd is 0.25 nM.

B2: CTGGAAGCAT (dsDNA)
DNA 1: CTGGAAGCAT
DNA 2: ATGCTTCCAG
For B2, which Kd (ZFP SBS#746) is on record?
The Kd was 2.07 nM.

B3: GATGACGAC (dsDNA)
DNA 1: GATGACGAC
DNA 2: GTCGTCATC
With B3 as the binder, how does the Kd (ZFP SBS#568) read?
Its Kd is 300 nM.

What about the Kd (ZFP SBS#430) of the same binder?
The Kd was 250 nM.

B4: ATGGACGGGT (dsDNA)
DNA 1: ATGGACGGGT
DNA 2: ACCCGTCCAT
What does the source list for B4?
Kd (ZFP SBS#777): 3.4 nM; Kd (ZFP SBS#776): 0.4 nM

B5: GCGGTGGCTC (dsDNA)
DNA 1: GCGGTGGCTC
DNA 2: GAGCCACCGC
What does the source list for B5?
Kd (ZFP SBS#727): 0.1 nM; Kd (ZFP SBS#761): 6 nM; Kd (ZFP SBS#762): 18 nM; Kd (ZFP SBS#735): 0.05 nM

B6: GGTGAGGAGT (dsDNA)
DNA 1: GGTGAGGAGT
DNA 2: ACTCCTCACC
With B6 as the binder, how does the Kd (ZFP SBS#728) read?
The Kd was 15 nM.

What about the Kd (ZFP SBS#713) of the same binder?
The Kd was 0.15 nM.

What about the Kd (ZFP SBS#712) of the same binder?
The Kd was 9.5 nM.

And the Kd (ZFP SBS#751)?
Its Kd is 7 nM.

B7: AAGGCTGAGA (dsDNA)
DNA 1: AAGGCTGAGA
DNA 2: TCTCAGCCTT
With B7 as the binder, how does the Kd (ZFP SBS#741) read?
Its Kd is 15 nM.

B8: GCGGGTGGGG (dsDNA)
DNA 1: GCGGGTGGGG
DNA 2: CCCCACCCGC
How did the Kd (ZFP SBS#732) turn out when B8 was run?
Its Kd is 22.5 nM.

And the Kd (ZFP SBS#733)?
The Kd was 0.32 nM.

B9: GAAGATGAC (dsDNA)
DNA 1: GAAGATGAC
DNA 2: GTCATCTTC
How did the Kd (ZFP SBS#567) turn out when B9 was run?
The Kd was 47.5 nM.

What about the Kd (ZFP SBS#428) of the same binder?
The Kd was 120 nM.

And the Kd (ZFP SBS#429)?
The Kd was 50 nM.

B10: ACGGGGTTAT (dsDNA)
DNA 1: ACGGGGTTAT
DNA 2: ATAACCCCGT
Which results are given for B10?
Kd (ZFP SBS#742): 29 nM; Kd (ZFP SBS#744): 8.33 nM; Kd (ZFP SBS#745): 12.5 nM; Kd (ZFP SBS#743): 10 nM

B11: CGGGCGGCTG (dsDNA)
DNA 1: CGGGCGGCTG
DNA 2: CAGCCGCCCG
Which Kd (ZFP SBS#757) does the source give for B11 here?
Its Kd is 14.5 nM.

And the Kd (ZFP SBS#758)?
The Kd was 16.5 nM.

B12: AAGGTGGCAG (dsDNA)
DNA 1: AAGGTGGCAG
DNA 2: CTGCCACCTT
Which Kd (ZFP SBS#704) does the source give for B12 here?
The Kd was 5 nM.

What about the Kd (ZFP SBS#607) of the same binder?
Its Kd is 6.5 nM.

What about the Kd (ZFP SBS#740) of the same binder?
The Kd was 12.5 nM.

B13: CTATTTTGGG (dsDNA)
DNA 1: CTATTTTGGG
DNA 2: CCCAAAATAG
With B13 as the binder, how does the Kd (ZFP SBS#747) read?
The Kd was 2000 nM.

B14: GAGGTGGGGA (dsDNA)
DNA 1: GAGGTGGGGA
DNA 2: TCCCCACCTC
For B14, which Kd (ZFP SBS#736) is on record?
Its Kd is 0.47 nM.

What about the Kd (ZFP SBS#752) of the same binder?
The Kd was 31 nM.

B15: TTGGACGGCG (dsDNA)
DNA 1: TTGGACGGCG
DNA 2: CGCCGTCCAA
What does the source list for B15?
Kd (ZFP SBS#760): 148 nM; Kd (ZFP SBS#759): 37 nM; Kd (ZFP SBS#748): 112 nM; Kd (ZFP SBS#749): 11.3 nM

B16: CGGGGAGCAG (dsDNA)
DNA 1: CGGGGAGCAG
DNA 2: CTGCTCCCCG
What does the source list for B16?
Kd (ZFP SBS#780): 0.5 nM; Kd (ZFP SBS#779): 0.5 nM
